From patent US20140072613A1 (published 2014) come the findings set out here.

Assay in all cases: cell-based or functional assay
Assay [1] concerns the target T1, SGK(h) (human, UniProt O00141 60-431, limits assumed).
T1 sequence (looked up): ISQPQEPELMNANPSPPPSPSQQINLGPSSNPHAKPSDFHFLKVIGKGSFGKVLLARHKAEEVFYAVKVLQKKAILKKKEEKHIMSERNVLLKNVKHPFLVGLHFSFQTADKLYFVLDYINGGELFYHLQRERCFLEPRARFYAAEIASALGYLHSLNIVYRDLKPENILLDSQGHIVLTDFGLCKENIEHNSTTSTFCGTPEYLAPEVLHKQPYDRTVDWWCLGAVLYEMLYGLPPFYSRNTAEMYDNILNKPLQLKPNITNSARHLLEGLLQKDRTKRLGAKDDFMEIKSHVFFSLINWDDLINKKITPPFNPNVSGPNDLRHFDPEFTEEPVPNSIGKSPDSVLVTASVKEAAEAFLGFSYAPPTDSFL

The target of assay [2] is Met(Y1248C)(h) (human, UniProt P08581-2 974-1408, limits assumed).
For assay [3], the target named is Pim-2(h) (human, UniProt Q9P1W9 1-311).
Chain of Pim-2(h) (Q9P1W9 whole entry): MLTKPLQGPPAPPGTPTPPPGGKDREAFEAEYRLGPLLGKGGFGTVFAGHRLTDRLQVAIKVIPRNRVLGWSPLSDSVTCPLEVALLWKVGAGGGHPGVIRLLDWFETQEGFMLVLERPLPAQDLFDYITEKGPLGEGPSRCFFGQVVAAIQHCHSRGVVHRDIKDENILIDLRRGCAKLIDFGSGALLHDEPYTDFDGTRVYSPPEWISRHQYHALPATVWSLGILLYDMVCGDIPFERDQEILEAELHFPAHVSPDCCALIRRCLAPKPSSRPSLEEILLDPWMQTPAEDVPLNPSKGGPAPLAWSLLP
The target of assay [4] is T2, IKKα(h) (human, UniProt O15111 1-745).
T2 sequence (looked up): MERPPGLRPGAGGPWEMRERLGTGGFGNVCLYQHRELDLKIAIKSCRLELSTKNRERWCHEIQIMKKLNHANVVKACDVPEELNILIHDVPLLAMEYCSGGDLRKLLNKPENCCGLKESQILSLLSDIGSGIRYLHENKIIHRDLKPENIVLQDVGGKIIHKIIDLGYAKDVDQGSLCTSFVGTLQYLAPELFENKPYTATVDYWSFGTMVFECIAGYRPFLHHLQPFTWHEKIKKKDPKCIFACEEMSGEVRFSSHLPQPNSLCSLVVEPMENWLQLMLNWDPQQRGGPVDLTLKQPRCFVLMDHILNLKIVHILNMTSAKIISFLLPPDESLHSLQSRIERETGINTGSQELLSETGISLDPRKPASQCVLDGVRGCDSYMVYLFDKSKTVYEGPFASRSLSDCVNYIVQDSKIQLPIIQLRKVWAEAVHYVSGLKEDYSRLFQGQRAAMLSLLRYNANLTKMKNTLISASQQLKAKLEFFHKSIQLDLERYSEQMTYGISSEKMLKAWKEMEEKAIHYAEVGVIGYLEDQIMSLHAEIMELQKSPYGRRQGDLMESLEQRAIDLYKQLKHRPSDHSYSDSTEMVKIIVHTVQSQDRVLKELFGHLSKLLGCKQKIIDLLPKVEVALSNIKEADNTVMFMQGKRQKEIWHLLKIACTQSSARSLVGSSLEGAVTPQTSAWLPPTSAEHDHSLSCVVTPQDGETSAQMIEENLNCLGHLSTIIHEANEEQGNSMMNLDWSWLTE

Assay [5] concerns the target cSRC(h) (human, UniProt P12931 1-536).
The target of assay [6] is IGF-1R(h), activated (human, UniProt P08069 959-1367, limits assumed).
Chain of IGF-1R(h), activated (P08069 959-1367 limits assumed): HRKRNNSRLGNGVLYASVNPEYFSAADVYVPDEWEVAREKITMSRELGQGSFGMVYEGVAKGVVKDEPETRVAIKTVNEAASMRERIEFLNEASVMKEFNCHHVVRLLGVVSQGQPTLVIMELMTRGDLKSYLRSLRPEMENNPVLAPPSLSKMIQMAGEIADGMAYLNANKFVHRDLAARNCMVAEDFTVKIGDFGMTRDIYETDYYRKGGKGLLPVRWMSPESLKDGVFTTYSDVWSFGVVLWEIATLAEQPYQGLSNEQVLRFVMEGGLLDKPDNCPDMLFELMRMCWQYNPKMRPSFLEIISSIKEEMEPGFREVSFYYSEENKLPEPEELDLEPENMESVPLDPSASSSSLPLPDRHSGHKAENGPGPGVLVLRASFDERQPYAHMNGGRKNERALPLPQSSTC
In assay [7] the target is CDK2/cyclinE(h) (human, UniProt P24941 1-298; P24864 1-410).
In assay [8] the target is CDK9/cyclin T1(h) (human, UniProt P50750 1-372; O60563 1-726, limits assumed).
Chain of CDK9/cyclin T1(h) (P50750 whole entry, chain 1 of 2): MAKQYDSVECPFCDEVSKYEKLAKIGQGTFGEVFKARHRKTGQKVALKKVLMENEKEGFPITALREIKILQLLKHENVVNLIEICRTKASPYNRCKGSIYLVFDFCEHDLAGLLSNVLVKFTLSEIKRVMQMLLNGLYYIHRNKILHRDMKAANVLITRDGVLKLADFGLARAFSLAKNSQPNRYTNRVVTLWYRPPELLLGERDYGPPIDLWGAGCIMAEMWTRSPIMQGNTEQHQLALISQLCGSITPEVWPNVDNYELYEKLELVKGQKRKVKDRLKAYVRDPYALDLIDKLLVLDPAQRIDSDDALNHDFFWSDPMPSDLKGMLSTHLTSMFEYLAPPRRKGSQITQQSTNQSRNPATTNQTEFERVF
Chain of CDK9/cyclin T1(h) (O60563 whole entry, chain 2 of 2): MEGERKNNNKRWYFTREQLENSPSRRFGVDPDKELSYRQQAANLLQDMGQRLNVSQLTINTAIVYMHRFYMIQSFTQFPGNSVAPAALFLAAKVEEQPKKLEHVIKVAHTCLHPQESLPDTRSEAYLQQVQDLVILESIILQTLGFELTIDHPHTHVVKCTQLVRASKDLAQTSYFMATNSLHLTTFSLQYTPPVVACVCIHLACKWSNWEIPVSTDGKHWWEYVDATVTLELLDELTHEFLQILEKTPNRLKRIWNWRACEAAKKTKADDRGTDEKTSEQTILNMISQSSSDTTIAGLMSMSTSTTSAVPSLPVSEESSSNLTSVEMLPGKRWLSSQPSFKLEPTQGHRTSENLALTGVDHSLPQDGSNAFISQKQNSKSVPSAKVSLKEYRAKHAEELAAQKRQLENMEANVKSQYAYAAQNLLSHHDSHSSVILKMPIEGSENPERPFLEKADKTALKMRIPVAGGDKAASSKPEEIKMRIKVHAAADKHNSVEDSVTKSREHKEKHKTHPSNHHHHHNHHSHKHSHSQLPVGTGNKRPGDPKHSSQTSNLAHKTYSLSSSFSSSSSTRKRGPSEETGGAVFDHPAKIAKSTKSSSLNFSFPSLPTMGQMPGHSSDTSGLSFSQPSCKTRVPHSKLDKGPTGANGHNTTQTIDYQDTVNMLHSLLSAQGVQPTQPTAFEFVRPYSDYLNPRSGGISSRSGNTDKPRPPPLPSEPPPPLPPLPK
Assay [9] concerns the target ZIPK(h) (human, UniProt O43293 1-454, limits assumed).
Assay [10] has as its target T3, PKCε(h) (human, UniProt Q02156 1-737).
T3 sequence (looked up): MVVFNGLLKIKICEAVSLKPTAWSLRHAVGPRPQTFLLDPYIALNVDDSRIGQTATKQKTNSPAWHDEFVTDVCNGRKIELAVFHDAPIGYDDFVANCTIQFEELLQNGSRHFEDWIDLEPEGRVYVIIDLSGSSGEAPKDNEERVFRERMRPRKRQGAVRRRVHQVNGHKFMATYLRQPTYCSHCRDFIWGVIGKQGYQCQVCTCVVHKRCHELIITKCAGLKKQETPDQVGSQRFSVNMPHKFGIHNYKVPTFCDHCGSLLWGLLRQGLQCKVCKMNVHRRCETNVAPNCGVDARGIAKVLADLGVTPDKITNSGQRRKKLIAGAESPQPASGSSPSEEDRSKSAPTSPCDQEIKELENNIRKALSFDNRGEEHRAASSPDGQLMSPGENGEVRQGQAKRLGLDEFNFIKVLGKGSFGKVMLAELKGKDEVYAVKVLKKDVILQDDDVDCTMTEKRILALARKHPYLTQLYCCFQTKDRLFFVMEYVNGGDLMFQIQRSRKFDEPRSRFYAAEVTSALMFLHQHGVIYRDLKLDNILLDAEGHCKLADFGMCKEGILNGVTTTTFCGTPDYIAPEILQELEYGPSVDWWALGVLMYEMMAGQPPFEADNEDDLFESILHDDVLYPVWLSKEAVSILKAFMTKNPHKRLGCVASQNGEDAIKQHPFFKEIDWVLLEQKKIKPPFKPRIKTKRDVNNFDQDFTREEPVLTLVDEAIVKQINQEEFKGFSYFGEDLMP

Assay [11] has as its target ROCK-II(h) (human, UniProt O75116 11-552, limits assumed).
The target of assay [12] is MARK1(h) (human, UniProt Q9P0L2 1-795, limits assumed).
Chain of MARK1(h) (Q9P0L2 whole entry): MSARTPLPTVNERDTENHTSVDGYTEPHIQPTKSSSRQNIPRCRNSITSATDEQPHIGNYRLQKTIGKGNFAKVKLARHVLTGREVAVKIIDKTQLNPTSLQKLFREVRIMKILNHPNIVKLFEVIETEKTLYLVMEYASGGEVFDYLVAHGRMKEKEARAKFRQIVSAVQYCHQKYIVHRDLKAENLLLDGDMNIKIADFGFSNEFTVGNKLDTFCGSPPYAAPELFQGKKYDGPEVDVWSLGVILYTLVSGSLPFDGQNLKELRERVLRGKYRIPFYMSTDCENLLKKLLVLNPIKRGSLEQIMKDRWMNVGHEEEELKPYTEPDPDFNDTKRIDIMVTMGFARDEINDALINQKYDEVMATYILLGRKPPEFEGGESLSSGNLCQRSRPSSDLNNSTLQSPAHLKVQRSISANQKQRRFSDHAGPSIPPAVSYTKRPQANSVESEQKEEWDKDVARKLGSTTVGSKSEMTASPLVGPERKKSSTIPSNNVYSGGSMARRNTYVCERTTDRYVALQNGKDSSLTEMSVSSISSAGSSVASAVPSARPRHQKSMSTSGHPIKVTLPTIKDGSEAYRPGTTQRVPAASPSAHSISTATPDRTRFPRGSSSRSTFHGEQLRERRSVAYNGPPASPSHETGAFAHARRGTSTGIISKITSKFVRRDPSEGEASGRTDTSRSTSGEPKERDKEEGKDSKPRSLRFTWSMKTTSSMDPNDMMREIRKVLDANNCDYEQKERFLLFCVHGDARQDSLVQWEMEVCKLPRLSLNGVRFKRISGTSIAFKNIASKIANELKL
Assay [13] deals with T4, SAPK3(h) (human, UniProt P53778 1-367).
T4 sequence (looked up): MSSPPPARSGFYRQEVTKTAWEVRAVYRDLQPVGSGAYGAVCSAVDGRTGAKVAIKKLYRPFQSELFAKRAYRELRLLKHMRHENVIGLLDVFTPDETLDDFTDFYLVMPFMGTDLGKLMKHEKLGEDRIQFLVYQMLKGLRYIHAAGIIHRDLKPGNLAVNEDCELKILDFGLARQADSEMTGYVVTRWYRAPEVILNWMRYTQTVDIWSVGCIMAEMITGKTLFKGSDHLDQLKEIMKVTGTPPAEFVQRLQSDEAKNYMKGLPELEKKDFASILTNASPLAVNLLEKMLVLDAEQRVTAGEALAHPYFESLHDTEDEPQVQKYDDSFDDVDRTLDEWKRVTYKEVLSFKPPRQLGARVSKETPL

Chain of ROCK-II(h) (O75116 11-552 limits assumed): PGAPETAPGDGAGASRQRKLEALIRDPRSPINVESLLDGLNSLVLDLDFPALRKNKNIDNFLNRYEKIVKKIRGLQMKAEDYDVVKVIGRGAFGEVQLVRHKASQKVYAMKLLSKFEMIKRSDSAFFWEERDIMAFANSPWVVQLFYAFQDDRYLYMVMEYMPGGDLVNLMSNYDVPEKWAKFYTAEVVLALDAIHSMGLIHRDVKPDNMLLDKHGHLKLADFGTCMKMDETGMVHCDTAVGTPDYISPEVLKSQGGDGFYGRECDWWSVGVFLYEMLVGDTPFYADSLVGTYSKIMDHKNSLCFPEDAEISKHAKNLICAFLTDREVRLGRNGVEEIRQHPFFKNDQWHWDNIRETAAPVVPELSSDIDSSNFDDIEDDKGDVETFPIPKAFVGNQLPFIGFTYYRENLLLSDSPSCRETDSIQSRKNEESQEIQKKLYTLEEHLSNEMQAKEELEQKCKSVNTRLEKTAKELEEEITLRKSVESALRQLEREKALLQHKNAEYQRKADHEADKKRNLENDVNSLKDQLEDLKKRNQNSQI
Chain of ZIPK(h) (O43293 whole entry): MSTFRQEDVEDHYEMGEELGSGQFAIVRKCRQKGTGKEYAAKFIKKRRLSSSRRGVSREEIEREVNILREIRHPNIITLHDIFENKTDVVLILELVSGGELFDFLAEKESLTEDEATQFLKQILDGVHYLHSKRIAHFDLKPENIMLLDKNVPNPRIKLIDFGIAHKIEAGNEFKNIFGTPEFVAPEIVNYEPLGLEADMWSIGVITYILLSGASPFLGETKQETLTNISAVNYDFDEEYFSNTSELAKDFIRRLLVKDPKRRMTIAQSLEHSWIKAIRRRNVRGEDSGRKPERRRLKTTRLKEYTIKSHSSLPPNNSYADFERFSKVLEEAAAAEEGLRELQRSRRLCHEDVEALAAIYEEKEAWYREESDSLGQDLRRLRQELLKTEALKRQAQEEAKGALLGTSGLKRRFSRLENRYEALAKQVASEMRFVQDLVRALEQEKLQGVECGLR

With FAKLAARLYRKALARQLGVAA [MMI-0300], the “% activity, 100 µM” value turned out to be 48% in [1]; 84% in [2]; 76% in assay [3]; 93% in [4]; 26% in [5]; 80% in assay [6]. The “% activity, 100 µM” value was determined as 94% in [7]; 91% in assay [8]; 28% in assay [9]; 79% in assay [10]; 74% in assay [11]; 132% in assay [12]. Besides, the “% activity, 100 µM” value in assay [13] was determined as 84%.
As to KAFAKLAARLYRKALARQLGVAA [MMI-0400], the “% activity, 100 µM” value was determined as 54% in assay [1]; 36% in [2]; 92% in assay [3]; 87% in [4]; 14% in assay [5]; 77% in [6]. For the same molecule, the “% activity, 100 µM” value in [7] worked out at 83%; in assay [8] it was 235%; in [9], 13%; in [10], 59%; in assay [11] it was 77%; in [12], 120%. In addition, the “% activity, 100 µM” value in assay [13] was found to be 79%.
